The target of test [1] is T1, IGF-1R on NCI-H322 cells (UniProt P08069 31-1367, limits assumed). The test is described as follows: cell-based or functional assay.
Test [2] addresses T1, IGF-1R on NCI-H322 cells. The test can be described thus: cell-based or functional assay. The source holds these as a separate data set.
Test [3] has as its target T2, Human IGF-I R (Glu 31-Asn 932 with a polyhistidine tag at the C-terminus) (human, UniProt P08069 31-932).
T2 construct: range 31-932; Bought protein; captured on Ni-NTA biosensors for BLI; also called IGF1R; IGF-1R; not shown: C-terminal polyhistidine tag
The test can be described thus: BLI (Octet RED96e), His-tagged IGF-1R on Ni-NTA sensors, Fab 0-100 nM, 1:1 global fit. An excerpt: Human IGF-I R (Glu 31-Asn 932 with a polyhistidine tag at the C-terminus) expressed from human 293 cells (HEK293) was purchased from ACROBiosystems (Newark, DE). Dip and Read Ni-NTA (NTA) Biosensors from Sartorius (Bohemia, NY) pre-immobilized with nickel-charged Tris-NTA, were enabled for kinetic characterization of novel anti-human IGF-I R antibodies. Briefly, antibody variants were digested into purified Fab fragments (to enable 1:1 binding and global fitting). The Fab[…] Fab kit from GENOVIS (Cambridge, MA) was used to generate a monovalent binding Fab domain of each antibody variant, Fab fragments are subsequently separated from Fc using the CaptureSelect™ Fc column. Binding of variant Fabs to NTA-captured human IGF-I R (His-tagged) was monitored by biolayer interferometry (BLI) on an Octet RED96e (Sartorius). NTA biosensors were charged with 10 mM NiCl2, then loaded with His-tagged human IGF-I R at approximately 5 ug/mL to an average loading response of 0.67 nm shift. Variant Fabs were assayed from 0-100 nM in 10X kinetics buffer (1X PBS, 0.1% BSA, 0.02% Tween-20 plus Kathon as a preservative) from Sartorius. Binding kinetics and affinities were determined using the Octet Analysis Studio Software (Sartorius) by applying a 1:1 global fitting to double-referenced subtracted data.
(In general: Biolayer interferometry detects binding as a change in optical thickness at a sensor tip.)

The target of test [4] is T3, IGF-1R (coated on Maxisorp plates) (UniProt P08069 31-932, limits assumed).
T3 construct: also called the receptor
The test is described as follows: competition ELISA, plate-coated IGF-1R, antibody titrated against 20 ng/mL IGF-1 biotin. The method, then:
(§1) Maxisorp plates were coated with 1.5 ug/mL of IGF-1R overnight at 4° C. Plates were washed and blocked with 1% BSA. Subsequently, serially diluted anti-IGF1R antibodies were incubated for 30 min at room temperature followed by an incubation with a final concentration of 20 ng/mL IGF-1 biotin. Plates were washed and streptavidin-horseradish peroxidase was added. After a final wash, 3,3′,5,5′-Tetramethylbenzidine was added for 8 minutes. The reaction was terminated with a HCL based stop solution. Plates were measured for absorbance at 450 nm, and the data was analyzed using Softmax Pro 7.1 software.
A general note: ELISA stands for enzyme-linked immunosorbent assay.

Test [5] has as its target T3, IGF-1R (coated on Maxisorp plates). The test is described as follows: competition ELISA, plate-coated IGF-1R, antibody titrated against 200 ng/mL IGF-2 biotin. The method, then:
as §1, with “of 200” for “of 20”, “ng/mL of IGF-2” for “ng/mL IGF-1”

Substitutions are numbered along the chain they refer to.

T1 sequence (P08069 31-1367 limits assumed): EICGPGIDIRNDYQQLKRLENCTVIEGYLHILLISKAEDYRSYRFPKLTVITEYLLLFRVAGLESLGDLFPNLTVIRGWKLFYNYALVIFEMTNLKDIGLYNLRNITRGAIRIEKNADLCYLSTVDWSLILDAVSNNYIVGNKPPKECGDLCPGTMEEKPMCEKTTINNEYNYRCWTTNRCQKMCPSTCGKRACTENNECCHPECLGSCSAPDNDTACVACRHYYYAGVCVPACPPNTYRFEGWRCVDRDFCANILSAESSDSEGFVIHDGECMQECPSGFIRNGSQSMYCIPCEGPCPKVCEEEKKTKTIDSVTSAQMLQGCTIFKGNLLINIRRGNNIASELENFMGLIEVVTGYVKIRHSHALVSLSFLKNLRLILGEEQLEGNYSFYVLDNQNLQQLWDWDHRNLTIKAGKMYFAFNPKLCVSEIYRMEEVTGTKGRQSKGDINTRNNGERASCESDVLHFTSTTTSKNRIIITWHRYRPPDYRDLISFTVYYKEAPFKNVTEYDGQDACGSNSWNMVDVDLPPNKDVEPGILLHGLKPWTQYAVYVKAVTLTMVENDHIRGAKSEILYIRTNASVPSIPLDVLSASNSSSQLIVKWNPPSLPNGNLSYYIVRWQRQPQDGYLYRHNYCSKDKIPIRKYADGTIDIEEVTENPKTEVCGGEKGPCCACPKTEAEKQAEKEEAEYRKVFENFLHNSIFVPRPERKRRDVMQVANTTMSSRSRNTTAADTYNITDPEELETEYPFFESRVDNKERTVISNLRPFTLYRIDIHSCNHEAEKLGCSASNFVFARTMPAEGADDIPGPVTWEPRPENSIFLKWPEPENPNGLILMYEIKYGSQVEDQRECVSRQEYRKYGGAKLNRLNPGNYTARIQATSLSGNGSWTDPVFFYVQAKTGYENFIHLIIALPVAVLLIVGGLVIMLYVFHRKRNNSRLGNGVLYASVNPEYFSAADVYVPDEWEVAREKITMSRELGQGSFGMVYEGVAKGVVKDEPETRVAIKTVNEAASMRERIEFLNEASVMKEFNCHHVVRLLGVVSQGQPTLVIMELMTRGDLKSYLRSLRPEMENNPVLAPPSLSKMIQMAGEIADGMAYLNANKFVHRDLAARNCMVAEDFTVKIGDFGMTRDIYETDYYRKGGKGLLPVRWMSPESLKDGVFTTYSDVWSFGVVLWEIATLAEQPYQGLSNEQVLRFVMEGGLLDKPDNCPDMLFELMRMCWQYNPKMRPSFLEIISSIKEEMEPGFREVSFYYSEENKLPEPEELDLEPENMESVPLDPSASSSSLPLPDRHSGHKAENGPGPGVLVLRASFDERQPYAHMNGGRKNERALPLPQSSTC
T3 sequence (P08069 31-932 limits assumed): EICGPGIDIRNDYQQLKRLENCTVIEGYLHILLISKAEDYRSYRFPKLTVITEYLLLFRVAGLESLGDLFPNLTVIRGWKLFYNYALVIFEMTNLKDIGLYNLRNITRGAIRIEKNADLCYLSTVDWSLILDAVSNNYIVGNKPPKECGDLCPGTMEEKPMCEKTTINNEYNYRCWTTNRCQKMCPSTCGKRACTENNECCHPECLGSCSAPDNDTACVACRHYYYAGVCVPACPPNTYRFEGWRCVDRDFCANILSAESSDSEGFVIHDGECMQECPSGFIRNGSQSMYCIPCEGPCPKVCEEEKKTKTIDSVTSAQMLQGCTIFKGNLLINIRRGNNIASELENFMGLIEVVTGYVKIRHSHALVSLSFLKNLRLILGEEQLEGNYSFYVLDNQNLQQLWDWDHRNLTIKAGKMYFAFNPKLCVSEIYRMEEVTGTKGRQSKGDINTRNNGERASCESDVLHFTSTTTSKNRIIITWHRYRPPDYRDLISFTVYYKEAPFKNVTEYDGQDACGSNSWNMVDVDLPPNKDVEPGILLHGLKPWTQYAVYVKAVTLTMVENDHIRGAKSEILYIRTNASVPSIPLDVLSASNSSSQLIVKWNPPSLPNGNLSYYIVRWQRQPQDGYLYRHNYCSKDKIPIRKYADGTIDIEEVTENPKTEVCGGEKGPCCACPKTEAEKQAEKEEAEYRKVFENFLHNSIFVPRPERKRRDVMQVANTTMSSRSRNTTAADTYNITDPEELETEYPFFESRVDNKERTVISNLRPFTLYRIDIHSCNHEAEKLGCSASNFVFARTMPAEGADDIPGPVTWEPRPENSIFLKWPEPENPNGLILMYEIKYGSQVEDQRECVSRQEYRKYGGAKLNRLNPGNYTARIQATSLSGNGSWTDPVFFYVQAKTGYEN
T2 sequence (P08069 31-932 limits assumed): as above

B1: Teprotumumab reference antibody (antibody, V domains shown)
VH: QVELVESGGGVVQPGRSQRLSCAASGFTFSSYGMHWVRQAPGKGLEWVAIIWFDGSSTYYADSVRGRFTISRDNSKNTLYLQMNSLRAEDTAVYFCARELGRRYFDLWGRGTLVSVSS
VL: EIVLTQSPATLSLSPGERATLSCRASQSVSSYLAWYQQKPGQAPRLLIYDASKRATGIPARFSGSGSGTDFTLTISSLEPEDFAVYYCQQRSKWPPWTFGQGTKVESK
As for B1, in the test with IGF-1R on NCI-H322 cells [1], the “IC50 of inhibition of IGF-1R phosphorylation” value amounted to 0.397 µg/mL. Moreover, in the test with IGF-1R on NCI-H322 cells [2], the “Inhibition of Phosphorylation IC50” value is 0.0106 µg/mL.

B2: C10 antibody (antibody, V domains shown)
VH: B1 VH with Y32A, F53A
VL: B1 VL with W94Y
Turning to B2, the “Inhibition of Phosphorylation IC50” value with IGF-1R on NCI-H322 cells [2] was 0.0065 µg/mL.

B3: D03-YTE (antibody, V domains shown)
VH: B1 VH with Y32H, I50Y
VL: B1 VL with Y32A, W94Y
Regarding B3, in the test with IGF-1R on NCI-H322 cells [1], the “IC50 of inhibition of IGF-1R phosphorylation” value is 0.0205 µg/mL.

B4: H11 Fab (Fab, V domains shown)
VH: B1 VH with I50T, F53H
VL: B1 VL with Y32A, S92G, W94Y
Usually Kd stands for a measure of binding affinity in units of concentration. Usually koff stands for the first-order rate constant of dissociation. Lower therefore signals a long-lived complex. A word on the kon: it is the rate constant with which the complex forms. On to B4, for which, in test [3], binding was characterised by a dissociation constant (Kd) of 0.418 nM, the dissociation rate constant (koff) worked out at 0.000744 s⁻¹ and the kon was determined as 1.78e+06 M⁻¹ s⁻¹.

B5: D03 Fab (Fab, V domains shown)
VH: B1 VH with Y32H, I50Y
VL: B1 VL with Y32A, W94Y
notes: also called clone D03
In test [3], B5 gave a Kd of 0.407 nM, a koff of 0.000603 s⁻¹ and a kon of 1.48e+06 M⁻¹ s⁻¹.

B6: B10 Fab (Fab, V domains shown)
VH: B1 VH with I50T
VL: B1 VL with W94Y
B6: in test [3], the dissociation constant Kd stood at 0.898 nM, the koff was found to be 0.000826 s⁻¹ and the kon stood at 921000 M⁻¹ s⁻¹.

B7: B09 antibody (antibody, V domains shown)
VH: B1 VH with Y32H, W52A, F53G, G55A, S57T
VL: B1 VL with W94Y
notes: Whole antibody
As usually defined, the IC50 is the concentration at which inhibition is half-maximal. Lower therefore signals greater potency in that assay. Regarding B7, the “Inhibition of Phosphorylation IC50” value with IGF-1R on NCI-H322 cells [2] stood at 0.0083 µg/mL. Besides, the IC50 in test [4] stood at 0.337 µg/mL; in test [5] it was 0.153 µg/mL.

B8: A11 antibody (antibody, V domains shown)
VH: B1 VH with I50Y
VL: B1 VL with W94Y
notes: Whole antibody
Consider B8, for which, in the test with IGF-1R on NCI-H322 cells [2], the “Inhibition of Phosphorylation IC50” value stood at 0.0115 µg/mL. The 50% inhibitory concentration (IC50) in test [4] worked out at 0.351 µg/mL; in test [5], 0.158 µg/mL.

B9: D03 antibody (antibody, V domains shown)
VH: B1 VH with Y32H, I50Y
VL: B1 VL with Y32A, W94Y
notes: Whole antibody; also called clone D03
For the molecule B9, in the test with IGF-1R on NCI-H322 cells [2], the “Inhibition of Phosphorylation IC50” value worked out at 0.0049 µg/mL. Besides, the concentration for half-maximal inhibition (IC50) in test [4] came out at 0.388 µg/mL; in test [5], 0.161 µg/mL.

B10: A11 Fab (Fab, V domains shown)
VH: B1 VH with I50Y
VL: B1 VL with W94Y
As to B10, in test [3], binding was characterised by a dissociation constant (Kd) of 0.849 nM, the koff is 0.00076 s⁻¹ and the kon is 895000 M⁻¹ s⁻¹.

B11: B02 Fab (Fab, V domains shown)
VH: B1 VH with Y32T, I50Y, G101N
VL: B1 VL with W94Y
B11: in test [3], the affinity, expressed as Kd, was 1.54 nM; the koff turned out to be 0.00125 s⁻¹; the association rate constant (kon) was 810000 M⁻¹ s⁻¹.

B12: F02 Fab (Fab, V domains shown)
VH: B1 VH with Y32H, I50T
VL: B1 VL with Y32T, W94Y
For the molecule B12, in test [3], the dissociation constant Kd was 1.92 nM, the dissociation rate constant (koff) was 0.0023 s⁻¹ and the association rate constant (kon) was 1.2e+06 M⁻¹ s⁻¹.

B13: E01 Fab (Fab, V domains shown)
VH: B1 VH
VL: B1 VL with W94Y
In the case of B13, in test [3], the Kd amounted to 0.179 nM, the koff worked out at 0.000298 s⁻¹ and the kon worked out at 2.66e+06 M⁻¹ s⁻¹.

B14: H11 antibody (antibody, V domains shown)
VH: B1 VH with I50T, F53H
VL: B1 VL with Y32A, S92G, W94Y
notes: Whole antibody
For B14, the “Inhibition of Phosphorylation IC50” value in the test with IGF-1R on NCI-H322 cells [2] was determined as 0.0211 µg/mL. Besides, the 50% inhibitory concentration (IC50) was 0.452 µg/mL in test [4] and 0.157 µg/mL in test [5].

B15: C10 Fab (Fab, V domains shown)
VH: B1 VH with Y32A, F53A
VL: B1 VL with W94Y
As for B15, in test [3], the dissociation constant (Kd) came to 0.447 nM, the koff worked out at 0.000485 s⁻¹ and the on-rate (kon) was found to be 1.08e+06 M⁻¹ s⁻¹.

B16: B02 antibody (antibody, V domains shown)
VH: B1 VH with Y32T, I50Y, G101N
VL: B1 VL with W94Y
notes: Whole antibody
For B16, in the test with IGF-1R on NCI-H322 cells [2], the “Inhibition of Phosphorylation IC50” value came out at 0.0135 µg/mL. Moreover, the IC50 in test [4] is 0.386 µg/mL; in test [5], 0.115 µg/mL.

B17: B10 antibody (antibody, V domains shown)
VH: B1 VH with I50T
VL: B1 VL with W94Y
notes: Whole antibody
With B17, in the test with IGF-1R on NCI-H322 cells [2], the “Inhibition of Phosphorylation IC50” value turned out to be 0.0162 µg/mL. In addition, the concentration for half-maximal inhibition (IC50) came out at 0.395 µg/mL in test [4] and 0.176 µg/mL in test [5].

B18: E01 antibody (antibody, V domains shown)
VH: B1 VH
VL: B1 VL with W94Y
notes: Whole antibody
Regarding B18, the “Inhibition of Phosphorylation IC50” value with IGF-1R on NCI-H322 cells [2] was 0.0064 µg/mL. The IC50 in test [4] is 0.388 µg/mL; in test [5], 0.141 µg/mL.

B19: B09 Fab (Fab, V domains shown)
VH: B1 VH with Y32H, W52A, F53G, G55A, S57T
VL: B1 VL with W94Y
In test [3], B19 displayed a dissociation constant Kd of 1.13 nM, a koff of 0.000799 s⁻¹ and a kon of 705000 M⁻¹ s⁻¹.

B20: D10 antibody (antibody, V domains shown)
VH: B1 VH with W52N
VL: B1 VL with W94Y
On to B20, for which, in the test with IGF-1R on NCI-H322 cells [2], the “Inhibition of Phosphorylation IC50” value amounted to 0.0067 µg/mL.

Source of the values: patent publication US20230406942A1 (HORIZON THERAPEUTICS IRELAND DAC, published 2023).
